Assay: soluble on expression in E. coli; label from the status in PepcDB or PDB records

Sequence	soluble on expression in E. coli
MGSDKIHHHHHHMTIMDWNTIKGLVPVSGVQPDFVNCLDAFPVLKRAKETPQEPRYHGEGDVWTHTMMVIESLLQLPDYQTATREQQEILFFAALLHDVAKYRTTVIDPVTGQIGQPGHSRKGAIDARVLLWDADVPFAIREAICRLIAVHQVPFYCLEDERRRVSPIFTIRELSWQLSIPLLATLAEADIRGRICQDQTRVLDSIELFRELAREEGCYGQPRAFVDAHTRLSYFRGADVHPDYPLFQEPGSKVTVMCGLPASGKDTWVRTHRHDLPVVSFDDARTELGLKHGENEGKAVHWATDKARSLLRTHEPFVWNATHLSQQMRTRTLDLCYAYGAEVEIVYLERPRQELLRRNGKRDTTLSNKTLQGMLTKWELPSPTEAHVVRYES	not soluble
SKGYFETNRIQHIIVDEAQNFHTEDGNWCEKAKGITQGGKACPRMFWIFLDYFQTSHLKESGLPDFELQYPKEELTQVVRNGDKIAEFLQQELGKIRDNPPCSIPRASLNIVHEFKWSQSISGTLKIKYLTSEKMVSYVANKCDVFLSKGYSPQDIAVLFSTDREKKAYEHMFLREMRKKRRASQMNDTSVCHSNMFDRIRRFSGLERSIVFGINPIATEQPISHNLLICLASRAMKYLYILYALTPEGQSSTVAC	soluble
MHIRTTTPVLTSLTSCNFGTASLGDTSPYCMALRPFPLGNTPLHAVIRRSAREFECVEAVPASNAVRSPSTASWVSAESLDSIISLANRTSEEMEVDQLIYRLCRSLYHVAKKKSAQIHCHPNHQERQQQQQQASSSGWRSVECEGHFSNMRGREDWCPLLHLFDPRSYYKVMGQPSQHDGCKLCGDVVGTESSPEGVSQWLMSELSVTRLTGGNSNHVYRLGHASFPKKAVLLRVYGDGGGGDVIDRARDIKVMRLMSKSEMGPGLLHTFHWGRVEEFMDGVLTCTTEKLLTSPSLLADVYGGLSKMHQLDYTPLLPENMRTKGMSNGHNSSQSVSDTVSKSGGGQEGPDGTVGGVNELESTCHTSFERVCLRLLRLVSLNVVEEHRHSLESWLAGEVMFVRRELQYRGIPVVLSHNDLNPGNILLSDGAGEASGTVFSDEELRVENTPLSKRYVTRKGKNMNLVERRGFLFIDFEYADANYRCFDLGNTLCELDYDYTRGTEAGGRGFIKYLFVFPPPAMEEAWRGLGEEYPRMPELIYDAWRRGVCDGSSDIGSVALLAVRRYFAERDNVPLETVELSEAQVGEVLLGMLASHLYWTIWSMTMGSAPDNCVECEDCDDQMFAVGGSGLDYMRYGECRLREYIALRGWLAEKGLLS	not soluble
MEDKPTILIMGGSLGLGNIEDIVEMVCHICDESYQIIVVTGKNKTLKKSLEERNFGRKVVVFGFISFIDKLMAISDILITKPGGLTCAEALSCKLPMILISPIPGQEERNTFYLINNGAAAYVKNIESFDIVFNQIINNPQRLEHMKLACSFLAKPLEHHHHHH	not soluble
MSEDADLKIFMDFLVEKTKDAFQPMIAVQVFREYLNEKSHLHDYHYKRFCCDLAPNMNEWNNYSIEARIRLMYALGGKVESDFLERIETHGTVELNKKRKITKYTSNDGILSLQDNRVHFTRFMDFLIQKTKYAVEPMNFNQVLEEFCRLEPDCRHYGVYYVRFHHKLAPNMDALNNYNIYDRIRLMFVLNGKVSGDFFKTIKTHGTVELDRKKKITKYVSNDGKLKLGGNIISDTRLMDFLIQKTRHSVEPMQATNLIFKEFSERPSRILDKMYQLRFYQKLAPNMNEWNRYSIEQRIRLMFVLKGKVADDFLKTIPILSMAKRIMICRIETHGTVELDEKRRIRKYTSNDGKLSLKKPLTDDTSCPTNIRFMDFLIQNTKDGAESIRLIYNEFALLEGNVLSASTYSSRFCKKLAPKMSQWSNYRIEDRIRMMFALKGKVESDFLAQMIQSGAVQLDENYRIVRYTSNNGKVELSEKRSGVKRRSSTKSSKTLGKRRQVIEKELSDLDEPEFVGIMHGYPKQEPVYEEIINQDMRYNNEDPHIPPEIEQFPIQAVHLEEPKFDPISSMNIGRGTLAQRFGTTSSESDGISVHNFLISLELILTSLESDTLIDLMREIKELRNRTNDEILPPDLVIPALQTCFMGITRKFRPEVSAPSKSAGECLRILKYSLLWLQSPLLYDLQKRVQEEIENCGADGKVIPIADIQQGIRNILFAVSI	not soluble
MSKLLLKTPCTTWTFDSLMACVFGIKVSDVKVYFDILKNGPSKINDIAERINRDRSTVQRAVQNLMNAGLVKRKQVNIKDGGYYYVYEAIPFEETKKIIKKTMEEWCNNMKKWVEELEFEDVVKEYLENIEE	not soluble
MEDIKSLLLQCPVLAGLPVEGINEAVQIVRARHFDEKALICSKGAQHSSLMVIAKGSVRVNSISSKGKEVTLMIFETGGWFGDNVFSPGMPRIFGATAHTDVTLLELPGDKFRQLLAKYPQSYPVILDLLSRRLWSAISVIEDDAIRGIEERIGRRLLLLAEYQHNRPISAQSCVVKVTREHIANMMGLTRQSVHKVLKKLENSNVLRLQYGSITILNPLKMEAYLKQLE	not soluble
MARATLACMEKITGAERSPEARDSAGAVGGADGREALVARVRAGERIKYLCFWGHRPLPDGRLGPSCLSQWWPSPFTVAGVEYATAEHWMMAGKARLFGDPEAERRVLAAAHPAGAKKAGRLVRGFDEAVWERERFRIVVEGSVHKFASDPALRVFLLATGERVLVEASPVDRVWGIGLAADDEAAVDPERWRGPNLLGFALMAARERLRAGELEHHHHHH	not soluble
MGSDKIHHHHHHMSEKQQILDYIETNKYSYIEISHRIHERPELGNEEIFASRTLIDRLKEHDFEIETEIAGHATGFIATYDSGLDGPAIGFLAEYDALPGLGHACGHNIIGTASVLGAIGLKQVIDQIGGKVVVLGCPAEEGGENGSAKASYVKAGVIDQIDIALMIHPGNETYKTIDTLAVDVLDVKFYGKSAHASENADEALNALDAMISYFNGVAQLRQHIKKDQRVHGVILDGGKAANIIPDYTHARFYTRAMTRKELDILTEKVNQIARGAAIQTGCDYEFGPIQNGVNEFIKTPKLDDLFAKYAEEVGEAVIDDDFGYGSTDTGNVSHVVPTIHPHIKIGSRNLVGHTHRFREAAASVHGDEALIKGAKIMALMGLELITNQDVYQDIIEEHAHLKGNGK	not soluble
MGKPTGFMEYKRETPPKKDPFERSKNWQEFTLLMPESALRQQGARCMDCGVPFCQTGTSMDGSGEIGCPVYNLIPEWNDLVYRGHWKEALERLHKTNNFPEFTGRVCPAPCEGSCTVAISDDAVAIKSMEFHIVERGFQEGWIVPNPPRSRTGKKVAVVGSGPAGLAAAAQLNKAGHWVTVFEREDRIGGLLTYGIPDVKLPYHVVERRINLLKEEGIEFRTNVEIGKDVSAKQLKDDFDAVVLCTGATKPRDVNVKGRELKGIHFAMDFLTANTKSLLNSNHQDGNYISAKGKHVVVIGGGDTGADCITTSVRHGAKSITQFDINREKSNERPDNNPWPLFPIVHTVEDGHKEAAAVYGKDPRAYQVMTTKFVGDAEGHVKEIHTISVETTVHPDGSKTRVEIPGTEKVWPADLVFLAVGFTGPEEQLVRELELETDTRSNIKAEYGKYETSLEGVFAAGDNRRGQSLVVWAIHEGREAARECDKYLMGASNLPLEHHHHHH	soluble
MPQALSTDILIVGGGIAGLWLNARLRRAGYATVLVESASLGGGQSVKSQGIIHGGAKYALHGALTGASEAIADMPRRWRACLGSDGELDLRGVRLLSEAHYLWSPGGLAGSLTSFFASKAVRSRVEQAKGEDLPPALRDKGFKGKAYRLTEIVFDVPDLIRRLAELAGDSLLAGERIEPLREGRELAGLCVDGREIRAQRVVLSAGAGNEALLRELGLEQPAMQRRPLHMVMVKAATLKPLYAHCLGAGPKPRITVTTHPTRDGQSVWYLGGDIAETDGVARDEAAQIAEARRELAKLLPWIDLGQAQWATLRVDRAEPAQSNLLRPDNAFLAEQGRLLVGWPTKLALAPDFADRVCARLEEDGIRPSEHAALPQLPRPPLAEPAWEVAFALEHHHHHH	not soluble
MSLTAQIRLAEPADLNDDTLRARAVAAARGDQRFDVLITGGTLVDVVTGELRPADIGIVGALIASVHEPASRRDAAQVIDAGGAYVSPGLIDTHMHIESSMITPAAYAAAVVARGVTTIVWDPHEFGNVHGVDGVRWAAKAIENLPLRAILLAPSCVPSAPGLERGGADFDAAILADLLSWPEIGGIAEIMNMRGVIERDPRMSGIVQAGLAAEKLVCGHARGLKNADLNAFMAAGVSSDHELVSGEDLMAKLRAGLTIELRGSHDHLLPEFVAALNTLGHLPQTVTLCTDDVFPDDLLQGGGLDDVVRRLVRYGLKPEWALRAATLNAAQRLGRSDLGLIAAGRRADIVVFEDLNGFSARHVLASGRAVAEGGRMLVDIPTCDTTVLKGSMKLPLRMANDFLVKSQGAKVRLATIDRPRFTQWGETEADVKDGFVVPPEGATMISVTHRHGMAEPTTKTGFLTGWGRWNGAFATTVSHDSHNLTVFGGNAGDMALAANAVIGTGGGMAVASEGKVTAILPLPLSGLVSDAPLEEVARAFEDLREAVGKVVEWQPPYLVFKACFGATLACNIGPHQTDMGIADVLTGKVMESPVIEVLGEGHHHHHH	soluble
MSAISPDTKSFAIPTLADEGSSSKPASSLDLPKHESIRFKPIKTLASRIDGSEYYDEASMEKVMEMLEIGRTDEAVAYADTLYSNIIDDEQQDIVTIAEYVKILVVLRQWRRISHIIARGNYHQIHIVFAYYAATALFQRKLYEDVAELSVGHLLPSNGQIGPLPVRTLSQVTGRYVEEERMKYSFANMAELDNSSKKLRMVPALMITIAESFLKLMNRDAAMICINYALSLDNTTLHVERLMAKYNLVEPAMWEKYRKVRNEQLKLHEGNHDPRILMERAQRAYEMGRFRETKKITDELFDLFGPHPECIILRIHCLTMLKDSRSLLELGHQLVSDDPHIPLPWYCVAMYYYSIGANSRARNFISKCTMMDSTFAEGWVAFGHILHYEVEHEQSMSCYYRASKLVDKSSEPFLYTSLQYSTHSQKLSKKFMGEAVARAPNDPLIRHEEACVAYTAKSYAEADILFRTVLYMVTETDEIIPIEEVLKKKIDDFWHPMLNNIGHIARRQGRLNEAIMFYQKAIRMEPKFVDAIASTALCYAVLGNIDKATEFFNKALAIDPFNETIRQCLSKMIQASKESYSVDQQTLPPAYNSETYFGAQEILPYCAIRKPRNDGFVVPSIVSSSQPFMSMLRDRLRRQDQLYAQEPDNDAGNQV	not soluble
MGSDKIHHHHHHMREISMDWNDLRFFLEVARTSSLTKTAIKLKVSQSTVSRRIGALESSLKTRLFLHHQTGYFLTDVGKEVLKYAEDVEGKVGTLEKKISGRDLAPAGIVRLATAVTLANHLIIPQLPRFMACYPEIILELVTGVNTVSVVRNDADIALRLVRPEQNSLKIRKVGVVASAVYGSETYVREHPAPEDNPIIGRSFITWDKSFSHLPSARWLNEHFPDMTSTLALTSLVTQIAAANAGLGLAVLPCFIAAQNSDLVEVIHTQRVFSEDLWLVSHTDLIASSRIRVVADFLMEIIAEAHLA	not soluble
MDTFEKLDKVDLQILRTLQENARLTTKELAARVSLSSTPVFERLKRLESGGYIKKYIAVLDAEKLNQGFVVFCSVKLRRLNRDIAAEFTRIIQDIPEVTECYNISGSYDYLLKIHAPNMKYYQEFILNVLGTIDSLGSLESTFVMAEVKHRYGIHI	soluble
MAHHHHHHMSTVEELKFIWKFLFSHMNTEKSKEEICDEKKYEENIILLKKLMRTENIKFDQKYNAINILEKLKDIEDIQYEDILNDYAKNFLTFLKGSFEKVAEEIQINDKISFRRNELIKQDLNNKLQNLNHNYNLEYINLNKCLGTEDFESQLNASLKFNSLKDILSKLLKEMKDYEIQYNNLSDTDKFLDMKICELENYLNNTNQNS	not soluble
MASGDLVRYVITVMLHEDTLTEINELNNYLTRDGFLLTMTDDEGNIHELGTNTFGLISTQSEEEIRELVSGLTQSATGKDPEITITTWEEWNSNRK	soluble

Reference: the DeepSol protein solubility set
